Data reported in article PMC12114846, “Interleukin-15Rα-Sushi-Fc Fusion Protein Co-Hitchhikes Interleukin-15 and Pheophorbide A for Cancer Photoimmunotherapy” (Pharmaceutics, 2025).

Biological target: IL-15 (Homo sapiens), P40933
Conditions: Fc fusion; remark: other sources report otherwise

Chain of IL-15 (Homo sapiens), P40933 (P40933 49-162): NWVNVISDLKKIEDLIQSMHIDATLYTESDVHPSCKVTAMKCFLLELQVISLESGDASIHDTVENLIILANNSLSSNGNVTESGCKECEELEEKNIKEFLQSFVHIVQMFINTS

B1: rIL-15Rα-Fc, Q13261 (protein)
chain: ITCPPPMSVEHADIWVKSYSLYSRERYICNSGFKRKAGTSSLTECVLNKATNVAHWTTPSLKCIRDPALVHQRPAPPSTVTTAGVTPQPESLSPSGKEPAASSPSSNNTAATTAAIVPGSQLMPSKSPSTGTTEISSHESSHGTPSQTTAKNWELTASASHQPPGVYPQGHSDTT
- Kd: 0.115 nM
